First the molecules themselves.
T1: EsCas13d, nuclease-dead (Eubacterium siraeum, UniProt B0MS50, R295A;H300A;R849A;H854A)
T1 sequence: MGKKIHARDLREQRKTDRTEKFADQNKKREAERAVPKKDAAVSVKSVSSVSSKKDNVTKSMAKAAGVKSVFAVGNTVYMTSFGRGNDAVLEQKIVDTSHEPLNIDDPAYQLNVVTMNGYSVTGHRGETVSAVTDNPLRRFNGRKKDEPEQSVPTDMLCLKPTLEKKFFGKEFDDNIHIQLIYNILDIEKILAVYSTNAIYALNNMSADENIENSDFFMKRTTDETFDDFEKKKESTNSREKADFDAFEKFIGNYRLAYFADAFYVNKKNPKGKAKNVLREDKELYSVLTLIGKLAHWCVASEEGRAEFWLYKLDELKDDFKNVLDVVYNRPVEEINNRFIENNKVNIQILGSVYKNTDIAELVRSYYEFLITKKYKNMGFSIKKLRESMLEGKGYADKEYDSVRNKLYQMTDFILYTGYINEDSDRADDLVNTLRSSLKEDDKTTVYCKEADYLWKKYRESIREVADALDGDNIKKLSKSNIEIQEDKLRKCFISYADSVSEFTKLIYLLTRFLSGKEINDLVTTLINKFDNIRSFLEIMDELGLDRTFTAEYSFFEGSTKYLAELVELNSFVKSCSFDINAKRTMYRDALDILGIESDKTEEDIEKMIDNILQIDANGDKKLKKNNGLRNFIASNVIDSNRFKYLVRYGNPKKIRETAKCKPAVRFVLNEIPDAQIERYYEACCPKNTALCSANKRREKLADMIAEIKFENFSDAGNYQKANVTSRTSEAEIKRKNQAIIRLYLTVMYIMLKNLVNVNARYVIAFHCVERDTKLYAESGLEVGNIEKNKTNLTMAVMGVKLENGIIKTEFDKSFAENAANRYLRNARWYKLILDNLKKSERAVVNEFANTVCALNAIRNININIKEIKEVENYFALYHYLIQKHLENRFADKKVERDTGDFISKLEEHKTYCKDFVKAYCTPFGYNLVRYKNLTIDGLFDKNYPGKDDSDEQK

B1: target 2 MT 5'PFS UGC 3'PFS CUC (mixed)
RNA 1: CACCCGUGCAAAAUUGCAGGGGUCUAAAACCUUCUCCAAAUUGUUUCAUCCU
RNA 2: GGGAAUGGAUCCACAUCUACGAAUUCUGCAGGAUGAAACAAUUUGGAGAAGCUCAGAUCGGAAGAGCACACGU
B2: target 2 MT 5'PFS GUU 3'PFS UAU (mixed)
RNA 1: B1 RNA 1
RNA 2: B1 RNA 2 with U27G, G28U, C29U, C52U, U53A, C54U
B3: target 2 MT 5'PFS GUU 3'PFS UAA (mixed)
RNA 1: B1 RNA 1
RNA 2: B1 RNA 2 with U27G, G28U, C29U, C52U, U53A, C54A
B4: target 2 MT 5'PFS UGC 3'PFS CUG (mixed)
RNA 1: B1 RNA 1
RNA 2: B1 RNA 2 with C54G
B5: target 2 MT 5'PFS CUC 3'PFS AGA (mixed)
RNA 1: B1 RNA 1
RNA 2: B1 RNA 2 with U27C, G28U, C52A, U53G, C54A
B6: target 2 MT 5'PFS ACG 3'PFS AAU (mixed)
RNA 1: B1 RNA 1
RNA 2: B1 RNA 2 with U27A, G28C, C29G, C52A, U53A, C54U
B7: target 2 MT 5'PFS AUC 3'PFS AGA (mixed)
RNA 1: B1 RNA 1
RNA 2: B1 RNA 2 with U27A, G28U, C52A, U53G, C54A
B8: target 2 MT 5'PFS UCU 3'PFS ACU (mixed)
RNA 1: B1 RNA 1
RNA 2: B1 RNA 2 with G28C, C29U, C52A, U53C, C54U
B9: target 2 MT 5'PFS ACU 3'PFS UAC (mixed)
RNA 1: B1 RNA 1
RNA 2: B1 RNA 2 with U27A, G28C, C29U, C52U, U53A
B10: target 2 MT 5'PFS AUG 3'PFS CUA (mixed)
RNA 1: B1 RNA 1
RNA 2: B1 RNA 2 with U27A, G28U, C29G, C54A
B11: target 2 MT 5'PFS CAC 3'PFS AAC (mixed)
RNA 1: B1 RNA 1
RNA 2: B1 RNA 2 with U27C, G28A, C52A, U53A
B12: target 2 MT 5'PFS UGC 3'PFS CUU (mixed)
RNA 1: B1 RNA 1
RNA 2: B1 RNA 2 with C54U
B13: target 2 MT 5'PFS ACU 3'PFS UAU (mixed)
RNA 1: B1 RNA 1
RNA 2: B1 RNA 2 with U27A, G28C, C29U, C52U, U53A, C54U
B14: target 2 MT 5'PFS AUG 3'PFS CUU (mixed)
RNA 1: B1 RNA 1
RNA 2: B1 RNA 2 with U27A, G28U, C29G, C54U
B15: target 2 MT 5'PFS GCU 3'PFS CGG (mixed)
RNA 1: B1 RNA 1
RNA 2: B1 RNA 2 with U27G, G28C, C29U, U53G, C54G
B16: target 2 MT 5'PFS GGC 3'PFS ACU (mixed)
RNA 1: B1 RNA 1
RNA 2: B1 RNA 2 with U27G, C52A, U53C, C54U
B17: target 2 MT 5'PFS ACG 3'PFS AAC (mixed)
RNA 1: B1 RNA 1
RNA 2: B1 RNA 2 with U27A, G28C, C29G, C52A, U53A
B18: target 2 MT 5'PFS CAC 3'PFS AAA (mixed)
RNA 1: B1 RNA 1
RNA 2: B1 RNA 2 with U27C, G28A, C52A, U53A, C54A
B19: target 2 MT 5'PFS AUG 3'PFS CUC (mixed)
RNA 1: B1 RNA 1
RNA 2: B1 RNA 2 with U27A, G28U, C29G
B20: target 2 MT 5'PFS GUA 3'PFS GCC (mixed)
RNA 1: B1 RNA 1
RNA 2: B1 RNA 2 with U27G, G28U, C29A, C52G, U53C
B21: target 2 MT 5'PFS CUC 3'PFS AGG (mixed)
RNA 1: B1 RNA 1
RNA 2: B1 RNA 2 with U27C, G28U, C52A, U53G, C54G
B22: target 2 MT 5'PFS ACU 3'PFS UAG (mixed)
RNA 1: B1 RNA 1
RNA 2: B1 RNA 2 with U27A, G28C, C29U, C52U, U53A, C54G
B23: target 2 MT 5'PFS GUA 3'PFS GCG (mixed)
RNA 1: B1 RNA 1
RNA 2: B1 RNA 2 with U27G, G28U, C29A, C52G, U53C, C54G
B24: target 2 MT 5'PFS CUC 3'PFS AGC (mixed)
RNA 1: B1 RNA 1
RNA 2: B1 RNA 2 with U27C, G28U, C52A, U53G
B25: target 2 MT 5'PFS UAU 3'PFS GGC (mixed)
RNA 1: B1 RNA 1
RNA 2: B1 RNA 2 with G28A, C29U, C52G, U53G
B26: target 2 MT 5'PFS ACG 3'PFS AAG (mixed)
RNA 1: B1 RNA 1
RNA 2: B1 RNA 2 with U27A, G28C, C29G, C52A, U53A, C54G
B27: target 2 MT 5'PFS UCG 3'PFS UGU (mixed)
RNA 1: B1 RNA 1
RNA 2: B1 RNA 2 with G28C, C29G, C52U, U53G, C54U
B28: target 2 MT 5'PFS CUC 3'PFS AGU (mixed)
RNA 1: B1 RNA 1
RNA 2: B1 RNA 2 with U27C, G28U, C52A, U53G, C54U
B29: target 2 MT 5'PFS GGC 3'PFS ACG (mixed)
RNA 1: B1 RNA 1
RNA 2: B1 RNA 2 with U27G, C52A, U53C, C54G
B30: target 2 MT 5'PFS GUU 3'PFS UAC (mixed)
RNA 1: B1 RNA 1
RNA 2: B1 RNA 2 with U27G, G28U, C29U, C52U, U53A
B31: target 2 MT 5'PFS ACU 3'PFS UAA (mixed)
RNA 1: B1 RNA 1
RNA 2: B1 RNA 2 with U27A, G28C, C29U, C52U, U53A, C54A
B32: target 2 MT 5'PFS AUC 3'PFS AGC (mixed)
RNA 1: B1 RNA 1
RNA 2: B1 RNA 2 with U27A, G28U, C52A, U53G
B33: target 2 MT 5'PFS GGC 3'PFS ACA (mixed)
RNA 1: B1 RNA 1
RNA 2: B1 RNA 2 with U27G, C52A, U53C, C54A
B34: target 1 insA 3' of 21,insU 3' of 6 (mixed)
RNA 1: CACCCGUGCAAAAAUGCAGGGGUCUAAAACUGAGCGGAUAACCUCUCUAUGG
RNA 2: GGGAAUGGAUCCACAUCUACGAAUUCGUACCAAUAGAGAGGUUAUCCUGCUCACCGAGAUCGGAAGAGCACACGU
B35: target 1 C2U,A9U (mixed)
RNA 1: B34 RNA 1
RNA 2: GGGAAUGGAUCCACAUCUACGAAUUCGUACCAUAGAGAGGUUUUCCGCUUACCGAGAUCGGAAGAGCACACGU
B36: target 1 A9C,G15U (mixed)
RNA 1: B34 RNA 1
RNA 2: B35 RNA 2 with G37U, U43C, U50C

Where a chain is given by its changes, count along the chain named. Names may count otherwise.

The target in this data set is T1, EsCas13d, nuclease-dead. Briefly: crRNA (strand 1, pre-loaded); Mg2+; 40 mM Tris-HCl pH 7.5, 150 mM NaCl, 6 mM MgCl2, 1 mM DTT, 0.1% Tween-20, 0.2 mg/ml BSA; 25 C; 10 min per concentration, then washed. The conditions noted are these: tags: His6-TwinStrep-SUMO cleaved; N-terminal SNAP kept (SNAP-Surface 488); label: 3' end held by stalled T7 RNA polymerase.
Usually Kd stands for the concentration at which binding is half-saturated. With B1, the affinity, expressed as Kd, was 26 ± 6 nM.
For B2, the affinity, expressed as Kd, was 16.2 ± 2.7 nM.
In the case of B3, binding was characterised by a dissociation constant (Kd) of 15.3 ± 3.3 nM.
Turning to B4, the dissociation constant Kd is 34 ± 9 nM.
In turn, B5 showed a Kd of 1.68 ± 0.16 nM. Compared with the last molecule, the Kd is about 20-fold lower.
Molecule B6 had a Kd of 5.4 ± 1.3 nM.
Take B7: the equilibrium dissociation constant (Kd) is around 80 nM.
For B8 the value was 9.4 ± 1.8 nM; for B9, 6.2 ± 0.9 nM.
With B10, the Kd stood at 7.5 ± 0.9 nM.
For B11, binding was characterised by a dissociation constant (Kd) of 1.98 ± 0.3 nM. Compared with the last molecule, the Kd is about 3.8-fold lower.
In turn, B12 showed a Kd of around 110 nM.
B13 had a Kd of 3.8 ± 0.6 nM.
On to B14, for which binding was characterised by a dissociation constant (Kd) of 15.4 ± 2.9 nM.
As for B15, binding was characterised by a dissociation constant (Kd) of 19 ± 4 nM.
The molecule B16 displayed a dissociation constant Kd of 21.3 ± 2.5 nM.
For the molecule B17, binding was characterised by a dissociation constant (Kd) of 5.5 ± 1.2 nM.
Consider B18, for which the Kd was 1.71 ± 0.3 nM.
The molecule B19 registered a Kd of 16 ± 5 nM.
In the case of B20, binding was characterised by a dissociation constant (Kd) of 6.4 ± 1.5 nM.
The molecule B21 showed a Kd of 2.8 ± 0.5 nM.
For B22 the value was 3.5 ± 0.4 nM; for B23, 6.7 ± 0.6 nM.
Molecule B24 came in with a Kd of 1.98 ± 0.25 nM.
B25 yielded a Kd of 44 ± 12 nM.
In turn, B26 showed a Kd of 9.8 ± 1.8 nM.
In the case of B27, the Kd is around 120 nM.
For B28, the dissociation constant Kd came out at 3.5 ± 0.8 nM.
As for B29, the dissociation constant (Kd) was 15.8 ± 1.1 nM.
B30: the Kd was 22 ± 4 nM.
B31 had a dissociation constant Kd of 4 ± 0.9 nM. This Kd lies about 5.5-fold lower than the previous one.
Turning to B32, the Kd was 21 ± 8 nM. Against the preceding molecule, the Kd is about 5.2-fold higher.
Molecule B33 returned a Kd of 18 ± 4 nM.
On to B34, for which binding was put at a Kd of 20.3 ± 1.5 nM.
Regarding B35, the Kd is 8.5 ± 0.7 nM.
Take B36: the Kd is around 70 nM.

For the origin of these results see paper PMC10786891, “Massively parallel profiling of RNA-targeting CRISPR-Cas13d”.
